The source of these data is US20040033954A1, “Therapeutic method for combined use of modified CNTF and thiadolidinedione” (priority 2002, published 2004).

For data set [1] the following is noted: cited from earlier work.
Data set [2] has as its system C57BL/KsJ db/db mice. Nature of the data set: Body weight and food intake of db/db mice under daily treatment. It counts as in vivo. As for the experimental part:
FIG. 1 is a graph of the effect of co-administration of Axokine™ (SEQ ID NO:1) (0.1 or 0.3 mg/kg s.c.), Avandia™ (3 or 10 mg/kg/day oral gavage) , or vehicle for 12 days on body weight in C57BL/KsJ db/db mice (% change from the first day of treatment). At day 5 (arrow), two combined treatment groups were initiated receiving Avandia™ (3 mg/kg/day, oral gavage)+Axokine™ (0.1 or 0.3 mg/kg s.c.). All data represents the mean (n≧6)±SEM.
C57BL/KsJ db/db mice were treated by daily administration of Axokine™ (SEQ ID NO:1) (0.1 or 0.3 mg/kg s.c.), Avandia™ (3 or 10 mg/kg/day oral gavage), and vehicle (vehicle) for […], and the effect on body weight determined (FIG. 1, shown as the % change from the first day of treatment). […] A combined treatment group consisted of Avandia™ (3 mg/kg/day, oral gavage) +Axokine™ (0.1 or 0.3 mg/kg s.c.) administered for the […] (arrow, FIG. 1). All data represents the mean (n>6)±SEM.

The test system of data set [3] is C57Ks/J db/db male mice. Description: Fatty liver of db/db mice, Oil-Red O staining for neutral lipid. Type of data set: in vivo. The following applies: 10-week-old db/db male mice; Avandia 3 or 10 mg/kg/day oral gavage for 13 days, ± Axokine 0.1 or 0.3 mg/kg/day in the last 8 days. How it is done: The effects of Avandia™ administration ±Axokine™ (SEQ ID NO:1) on fatty liver of db/db mice was examined. 10-week-old C57Ks/J db/db male mice were treated for 13 days with either vehicle or Avandia™ alone (3 or 10 mg/kg/day) by oral gavage or ±Axokine™ (0.1 or 0.3 mg/kg/day) in the last 8 days. 24 hours after the last administration (day 14) all animals were anesthetized , the liver removed and rapidly frozen until it could be processed. The tissues were sectioned, mounted on glass, and stained with Oil-Red O for the detection of neutral lipid.

The conditions of data set [4]: previously found by the applicant; cited from earlier work.
Setting [5] is: daily injection 0.1 or 0.3 mg/kg s.c.

As to `CN(CCOc1ccc(CC2SC(=O)NC2=O)cc1)c1ccccn1` (stereo not shown) [Avandia™, rosiglitazone], the body weight entry in data set [1] (Chaput et al. (2000)) was “increased body weight”.
For `Cc1c(C)c2c(c(C)c1O)CCC(C)(COc1ccc(CC3SC(=O)NC3=O)cc1)O2` (stereo not shown) [troglitazone], the hepatic reaction entry in data set [1] (patients, Lebovitz et al. (2002)) was “idiosyncratic hepatic reaction leading to hepatic failure and death in some patients”.

B1: Axokine™: modified CNTF molecule (SEQ ID NO:1) with improved physical and chemical properties, which activates the CNTF receptor (protein)
chain: MAFTEHSPLTPHRRDLASRSIWLARKIRSDLTALTESYVKHQGLNKNINLDSADGMPVASTDRWSELTEAERLQENLQAYRTFHVLLARLLEDQQVHFTPTEGDFHQAIHTLLLQVAAFAYQIEELMILLEYKIPRNEADGMPINVGDGGLFEKKLWGLKVLQELSQWTVRSIHDLRFISSHQTG
With B1, in data set [2] (setting [5]), the body weight entry is reported as “caused weight loss” and the food intake entry is “decreased food intake”. For the same molecule, the “body weight with increasing doses, versus vehicle control groups” value in data set [2] (increasing doses, ANOVA, P<0.0001 in all cases) was “further reduction in body weight”. In addition, the “deposition of neutral lipid in liver (Oil-Red O staining)” value in data set [3] is recorded as “reduced staining with Oil Red O”. Further, the “effect on food intake and body weight, blood glucose and tolerance, and serum insulin levels” value in data set [4] is listed as “profound effect”.
